Source: US7575883

B1: recombinant GST-SIRT3 (fragment of human SIRT3 lacking the first 100 amino acids of the N-terminus) (protein)
chain: SISFSVGASSVVGSGGSSDKGKLSLQDVAELIRARACQRVVVMVGAGISTPSGIPDFRSPGSGLYSNLQQYDLPYPEAIFELPFFFHNPKPFFTLAKELYPGNYKPNVTHYFLRLLHDKGLLLRLYTQNIDGLERVSGIPASKLVEAHGTFASATCTVCQRPFPGEDIRADVMADRVPRCPVCTGVVKPDIVFFGEPLPQRFLLHVVDFPMADLLLILGTSLEVEPFASLTEAVRSSVPRLLINRDLVGPLAWHPRSRDVAQLGDVVHGVESLVELLGWTEEMRDLVQRETGKLDGPDK
B2: recombinant GST-SIRT2 (protein)
chain: MAEPDPSHPLETQAGKVQEAQDSDSDSEGGAAGGEADMDFLRNLFSQTLSLGSQKERLLDELTLEGVARYMQSERCRRVICLVGAGISTSAGIPDFRSPSTGLYDNLEKYHLPYPEAIFEISYFKKHPEPFFALAKELYPGQFKPTICHYFMRLLKDKGLLLRCYTQNIDTLERIAGLEQEDLVEAHGTFYTSHCVSASCRHEYPLSWMKEKIFSEVTPKCEDCQSLVKPDIVFFGESLPARFFSCMQSDFLKVDLLLVMGTSLQVQPFASLISKAPLSTPRLLINKEKAGQSDPFLGMIMGLGGGMDFDSKKAYRDVAWLGECDQGCLALAELLGWKKELEDLVRREHASIDAQSGAGVPNPSTSASPKKSPPPAKDEARTTEREKPQ
B3: cell derived SIRT3-GFP (pull down from 293T cell extracts) (protein)
chain: MAFWGWRAAAALRLWGRVVERVEAGGGVGPFQACGCRLVLGGRDDVSAGLRGSHGARGEPLDPARPLQRPPRPEVPRAFRRQPRAAAPSFFFSSIKGGRRSISFSVGASSVVGSGGSSDKGKLSLQDVAELIRARACQRVVVMVGAGISTPSGIPDFRSPGSGLYSNLQQYDLPYPEAIFELPFFFHNPKPFFTLAKELYPGNYKPNVTHYFLRLLHDKGLLLRLYTQNIDGLERVSGIPASKLVEAHGTFASATCTVCQRPFPGEDIRADVMADRVPRCPVCTGVVKPDIVFFGEPLPQRFLLHVVDFPMADLLLILGTSLEVEPFASLTEAVRSSVPRLLINRDLVGPLAWHPRSRDVAQLGDVVHGVESLVELLGWTEEMRDLVQRETGKLDGPDK

Biological target: chemically acetylated cytochrome c

| Protein | deacetylation activity, tritiated acetate release assay in vitro, with and without NAD | deacetylation activity, 14C-nicotinamide release assay in vitro |
| --- | --- | --- |
| B1 | recombinant GST-SIRT3 deacetylates cytochrome c in a NAD dependent manner | – |
| B2 | recombinant GST-SIRT2 deacetylates cytochrome c in a NAD dependent manner | – |
| B3 | – | cell derived SIRT3 deacetylates cytochrome c |
